Results reported in the RNAGym collection of RNA variant scans (doi:10.7554/elife.80360).

B1: HDV Ribozyme (parent)
chain: GGCCGGCAUGGUCCCAGCCUCCUCGCUGGCGCCGGCUGGGCAACAUUCCGAGGGGACCGUCCCCUCGGUAAUGGCGAAUGGGACCCA

Variants of: B1
Assay: self-cleavage, relative activity (ratio to wild type); higher = more cleavage; co-transcriptional

Row | Variant | self-cleavage
1 | G52C G76A | 0.976
2 | G52A G55A | 0.893
3 | G50U C86A | 0.727
4 | A51U A78G | 0.532
5 | G52C U65G | 1.04
6 | A51U C63U | 0.88
7 | G52A G82U | 0.367
8 | G50A C61G | 0.91
9 | G53A A56U | 0.873
10 | G50C C61A | 0.865
11 | C49A G80U | 0.188
12 | C49A G80C | 0.0665
13 | A51U A56G | 1.11
14 | G52U A70U | 0.831
15 | G52U A70C | 0.577
16 | G52U A83G | 0.81
17 | C49G G50U | 0.47
18 | C49G A56C | 0.785
19 | A51C A78C | 0.277
20 | A51C U60C | 1.15
21 | G52U U72A | 0.496
22 | A51C G54C | 0.787
23 | C49A A71U | 0.849
24 | G50U G76U | 1.04

Row | Variant | self-cleavage
25 | A51C G68A | 0.916
26 | A51C G68C | 0.762
27 | A51G G68C | 0.831
28 | A51G G68A | 0.901
29 | G50C G53A | 0.665
30 | G50C G53U | 0.338
31 | A51G C63A | 0.734
32 | G52A G81U | 0.244
33 | G50A G76U | 1.01
34 | G52C G55C | 1.03
35 | G50U G82U | 0.633
36 | G52U C84U | 0.71
37 | C49A A83G | 0.546
38 | C49A C64A | 0.284
39 | G50A U65A | 1.02
40 | G50A A56G | 1.15
41 | G50C G81C | 0.125
42 | A51C C61G | 0.731
43 | A51U U60A | 1.14
44 | G52A G68A | 0.788
45 | A51C A70U | 1.15
46 | A51C A70G | 0.849
47 | G53A A77U | 0.483
48 | G52U A77U | 0.743

Row | Variant | self-cleavage
49 | G50C G68C | 0.249
50 | G50C G68U | 0.597
51 | G52C U60G | 0.944
52 | G52C U60A | 1.02
53 | A51U U72G | 0.534
54 | G52A G76A | 1.05
55 | G52A G76C | 1.24
56 | C49G G76U | 1.17
57 | G52A U69A | 1.05
58 | A51U A71G | 0.91
59 | G50A U69C | 0.688
60 | C49G G52A | 0.543
61 | C49G G52C | 0.287
62 | A51C G76U | 1.11
63 | C49A A70C | 0.831
64 | A51C A56G | 0.831
65 | C49G G55C | 1.03
66 | C49G A83U | 0.35
67 | C49G A70G | 0.733
68 | G50U A77C | 0.499
69 | A51G C86G | 0.702
70 | C49U U65C | 0.902
71 | C49A G55C | 0.927
72 | G50U A83U | 0.683

Row | Variant | self-cleavage
73 | C49A G52C | 0.573
74 | C49A G74U | 0.415
75 | G52C C62U | 0.987
76 | C49U C57A | 1.07
77 | G50U G80C | 0.111
78 | G50U C85U | 1.02
79 | C48U G80C | 0.243
80 | A51U C66U | 1.07
81 | G50U A71U | 1.02
82 | G50C G55U | 0.776
83 | G50C G55A | 0.959
84 | A51U G54A | 0.973
85 | G52C G74U | 0.312
86 | A51G C75U | 0.217
87 | C49U G67C | 1.1
88 | A51U G52A | 1.15
89 | G52A G74U | 0.561
90 | G52A G74C | 0.133
91 | G50A C66U | 0.989
92 | G50A C66G | 1.05
93 | A51C G67C | 0.886
94 | G50C G76U | 1.04
95 | C49G U65C | 0.675
96 | C48U G82C | 0.196

Row | Variant | self-cleavage
97 | G50A G81U | 0.281
98 | G50A G81A | 0.415
99 | G50A G81C | 0.225
100 | C49G G73U | 0.322
101 | G50A G52U | 0.688
102 | A51G C62U | 1.01
103 | G52C G82A | 0.712
104 | C49A G54U | 0.734
105 | C49A G54A | 0.589
106 | G52C C84U | 0.537
107 | G50A U72A | 0.677
108 | G52A C85G | 1
109 | G50A A87G | 1.01
110 | G52U G81U | 0.429
111 | C49A U65G | 0.539
112 | C49A U65C | 0.923
113 | G52U C63A | 0.806
114 | A51U G80A | 0.344
115 | A51C U79C | 0.447
116 | C49A C57A | 0.875
117 | A51G C58G | 0.969
118 | G52A A56C | 1.11
119 | G50U G52C | 0.803
120 | A51U C85G | 0.831

Row | Variant | self-cleavage
121 | A51U C85U | 0.916
122 | C49A G59A | 0.938
123 | G50C C84A | 0.743
124 | C49G C63U | 0.815
125 | C49G C63G | 0.475
126 | A51C G59U | 0.762
127 | A51C G59C | 0.807
128 | A51C C57A | 1.02
129 | G52A C57A | 0.963
130 | A51G A78U | 0.156
131 | A51U U69A | 0.95
132 | C49U A77C | 0.469
133 | A51U G67A | 0.78
134 | A51U G67U | 0.816
135 | A51G U65C | 1.26
136 | A51G A70G | 1.16
137 | A51C C75A | 0.0449
138 | C49U C66G | 0.892
139 | C49A C62A | 0.81
140 | C49A C62U | 0.933
141 | G50A A78G | 0.923
142 | G50A A78C | 0.138
143 | G53A C57G | 0.992
144 | G52A C86A | 0.9

Row | Variant | self-cleavage
145 | G50U U65A | 0.981
146 | G50U U65C | 0.791
147 | C49U C84A | 0.786
148 | A51G G80A | 0.376
149 | A51G C84A | 0.698
150 | G52C C58A | 0.796
151 | G52A C64G | 0.935
152 | C49G A71U | 1.04
153 | C49G A71G | 0.72
154 | G52U U65C | 0.658
155 | C49G C57U | 0.945
156 | G50U C58U | 0.909
157 | G52C A78G | 0.787
158 | G52C A78U | 0.315
159 | G52A C58U | 0.888
160 | G52A C58G | 0.974
161 | G50U G54U | 0.668
162 | C49A G73U | 0.272
163 | G50A A51G | 1.03
164 | A51C G55A | 0.873
165 | G50C A56G | 0.734
166 | G50C A56U | 0.935
167 | G52C C75A | 0.153
